{"source": "patent US5861377A", "about": "“Antistasin type serine protease inhibitors” (Novartis AG, priority 1994, dated 1999)", "key": {"[1]": {"system": "blood coagulation cascade", "test": "Blood coagulation cascade in vitro (general statement)", "procedure": "(§1) To determine whether hirustasin inhibits the blood coagulation in vitro, its effect on the prothrombin time and the partial thromboplastin time is measured using an Amelung KC10 coagulometer (Lemgo, Germany) and the reagent sets from Behringwerke AG (Marburg, Germany) according to the guidelines of the manufacturers."}, "[2]": {"system": "partial thromboplastin time", "test": "In vitro blood coagulation: partial thromboplastin time", "procedure": "as §1"}, "Leukocyte elastase": {"biological_target": "T1, Leukocyte elastase (Homo sapiens, UniProt P08246)", "T1 sequence (P08246 30-267)": "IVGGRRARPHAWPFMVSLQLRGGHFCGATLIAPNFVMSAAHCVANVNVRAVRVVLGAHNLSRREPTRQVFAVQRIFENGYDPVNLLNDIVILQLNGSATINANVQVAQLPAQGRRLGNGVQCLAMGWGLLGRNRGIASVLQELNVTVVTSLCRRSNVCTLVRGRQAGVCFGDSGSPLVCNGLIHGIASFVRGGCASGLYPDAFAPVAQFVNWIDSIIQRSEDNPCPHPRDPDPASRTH", "test": "Inhibition of amidolytic activity of serine proteinases: leukocyte elastase", "assay_type": "biochemical", "conditions": "inhibitor 1.3 mM", "procedure": "(§2) To determine the specificity of hirustasin, its effect on the amidolytic activity of various serine proteinases (see Tab. 3) is determined. Therefore, proteinases are incubated with the inhibitor (1.3 mM) for 15 and for 30 min, and the residual enzyme activities are measured after addition of a suitable substrate. Equilibrium dissociation constants (Ki) for the complexes of hirustasin with individual proteases are determined essentially as described by Bieth (Bull. Europ. Physopat. Resp. (1980), 16, 183-195). Briefly, increasing concentrations of the inhibitor are incubated with a constant concentration of the enzyme; the time necessary to reach equilibration of the enzyme-inhibitor complex is determined for each protease in preliminary experiments. Substrate is then added and the residual enzyme activity measured. Apparent Ki -values are calculated by fitting the steady state velocities to the equation for tight binding inhibitors (Morrison, Biochem. Biophys. Acta (1969), 185, 269-286) using non-linear regression analysis."}, "Factor Xa": {"biological_target": "Factor Xa (Homo sapiens, UniProt P00742)", "sequence (P00742 235-488 limits assumed)": "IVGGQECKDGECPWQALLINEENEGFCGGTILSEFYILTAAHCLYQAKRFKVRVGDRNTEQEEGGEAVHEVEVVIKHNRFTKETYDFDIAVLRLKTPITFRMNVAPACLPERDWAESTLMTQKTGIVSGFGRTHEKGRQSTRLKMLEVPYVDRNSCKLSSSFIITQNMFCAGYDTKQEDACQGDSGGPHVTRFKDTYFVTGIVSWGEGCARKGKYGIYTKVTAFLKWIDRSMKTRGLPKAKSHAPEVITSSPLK", "sequence (P00742 41-179 partner limits assumed)": "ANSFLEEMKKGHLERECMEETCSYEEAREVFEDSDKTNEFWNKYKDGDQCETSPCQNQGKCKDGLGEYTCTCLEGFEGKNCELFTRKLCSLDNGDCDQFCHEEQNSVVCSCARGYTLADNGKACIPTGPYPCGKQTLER", "test": "Inhibition of amidolytic activity of serine proteinases: factor Xa", "assay_type": "biochemical", "design": "effect on proteinase activity: dose or concentration left out as unconfirmed", "procedure": "as §2, with “(1.3 mM)” left out"}, "Urokinase": {"biological_target": "Urokinase (Homo sapiens, UniProt P00749)", "test": "Inhibition of amidolytic activity of serine proteinases: urokinase", "assay_type": "biochemical", "conditions": "inhibitor 1.3 mM", "procedure": "as §2"}, "prothrombin time": {"system": "prothrombin time", "test": "In vitro blood coagulation: prothrombin time (Quick)", "procedure": "as §1"}, "Pancreatic elastase": {"biological_target": "Pancreatic elastase (Sus scrofa, UniProt P00772)", "sequence (P00772 27-266)": "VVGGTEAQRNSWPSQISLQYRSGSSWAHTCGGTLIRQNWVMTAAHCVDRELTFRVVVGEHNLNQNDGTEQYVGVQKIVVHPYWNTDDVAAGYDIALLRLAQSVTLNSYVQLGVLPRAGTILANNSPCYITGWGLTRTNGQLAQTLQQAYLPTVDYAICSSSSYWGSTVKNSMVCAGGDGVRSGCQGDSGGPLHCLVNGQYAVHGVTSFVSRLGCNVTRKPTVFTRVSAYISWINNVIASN", "test": "Inhibition of amidolytic activity of serine proteinases: pancreatic elastase", "assay_type": "biochemical", "conditions": "porcine pancreatic elastase; inhibitor 1.3 mM", "procedure": "as §2"}, "Chymase": {"biological_target": "Chymase", "test": "Inhibition of amidolytic activity of serine proteinases: chymase", "assay_type": "biochemical", "conditions": "porcine chymase; inhibitor 1.3 mM", "procedure": "as §2"}, "Plasma kallikrein": {"biological_target": "Plasma kallikrein (Homo sapiens, UniProt P03952)", "sequence (P03952 391-638 limits assumed)": "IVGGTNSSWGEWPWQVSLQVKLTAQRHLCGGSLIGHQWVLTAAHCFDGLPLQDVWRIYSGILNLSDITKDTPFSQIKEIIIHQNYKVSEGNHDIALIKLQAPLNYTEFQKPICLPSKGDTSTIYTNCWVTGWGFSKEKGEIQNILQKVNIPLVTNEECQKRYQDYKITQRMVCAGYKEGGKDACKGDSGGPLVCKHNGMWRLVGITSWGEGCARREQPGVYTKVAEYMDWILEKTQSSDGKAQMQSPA", "sequence (P03952 20-390 partner limits assumed)": "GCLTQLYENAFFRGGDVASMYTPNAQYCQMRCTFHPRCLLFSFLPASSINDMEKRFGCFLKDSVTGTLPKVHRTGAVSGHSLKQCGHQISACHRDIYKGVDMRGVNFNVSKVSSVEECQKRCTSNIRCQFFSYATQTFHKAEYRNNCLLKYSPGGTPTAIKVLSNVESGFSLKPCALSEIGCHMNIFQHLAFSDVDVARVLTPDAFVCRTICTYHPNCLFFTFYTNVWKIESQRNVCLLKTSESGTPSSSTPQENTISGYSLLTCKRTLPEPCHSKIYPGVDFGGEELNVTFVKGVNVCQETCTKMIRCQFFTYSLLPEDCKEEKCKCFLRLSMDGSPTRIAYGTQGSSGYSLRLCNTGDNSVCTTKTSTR", "test": "Inhibition of amidolytic activity of serine proteinases: plasma kallikrein", "assay_type": "biochemical", "conditions": "inhibitor 1.3 mM", "procedure": "as §2"}, "Subtilisin": {"biological_target": "Subtilisin", "test": "Inhibition of amidolytic activity of serine proteinases: subtilisin", "assay_type": "biochemical", "conditions": "Bact. subt. subtilisin; inhibitor 1.3 mM", "procedure": "as §2"}, "Thrombin": {"biological_target": "T2, Thrombin (Homo sapiens, UniProt P00734)", "T2 construct": "the other proteinases tested including human α-thrombin and factor Xa", "test": "Inhibition of amidolytic activity of serine proteinases: thrombin", "assay_type": "biochemical", "design": "effect on proteinase activity: dose or concentration left out as unconfirmed", "procedure": "as §2, with “(1.3 mM)” left out"}, "trypsin": {"biological_target": "T3, trypsin (Bos taurus, UniProt P00760)", "T3 sequence (P00760 24-246)": "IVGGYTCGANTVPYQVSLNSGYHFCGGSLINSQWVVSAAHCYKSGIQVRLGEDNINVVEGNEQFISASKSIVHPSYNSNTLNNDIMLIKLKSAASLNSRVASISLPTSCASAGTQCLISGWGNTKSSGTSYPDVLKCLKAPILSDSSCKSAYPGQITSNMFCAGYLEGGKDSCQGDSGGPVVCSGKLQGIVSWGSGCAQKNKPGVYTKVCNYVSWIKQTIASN", "test": "Inhibitory activity during purification: amidolytic activity of trypsin", "assay_type": "biochemical", "conditions": "trypsin inhibition; fraction of the isolation step", "procedure": "During the purification procedure inhibitory activity is assayed by measuring the inhibition of the amidolytic activities of trypsin and chymotrypsin. Samples are incubated with trypsin (225 nM) in 50 mM Tris/HCl (pH 7.8), 0.1% (mass/vol) Triton X-100, for 12 min at 25° C. The assay is started by addition of the substrate benzoyl-L-argininep-nitroanilide (0.4 mM, final concentration). The released nitroaniline is monitored photometrically at 405 nm for 3.5 min using an UVIKON 930® photometer (Kontron; Eching, Germany).\n(§3) One inhibition unit (IU) is defined as the amount of inhibitor which reduces the substrate hydrolysis by 1 mmol per min."}, "chymotrypsin": {"biological_target": "chymotrypsin (Bos taurus, UniProt P00766)", "test": "Inhibitory activity during purification: amidolytic activity of chymotrypsin", "assay_type": "biochemical", "conditions": "chymotrypsin inhibition; fraction of the isolation step", "text": "as §3"}}, "data": [{"substance": "Hirustasin: polypeptide of SEQ ID NO:1, antistasin-type serine proteinase inhibitor isolated from the medical leech Hirudo medicinalis (TQGNTCGGETCSAAQVCLKGKCVCNEVHCRIRCKYGLKKDENGCEYPCSCAKASQ)", "values": [{"measurement": "effect on blood coagulation cascade in vitro", "setting": "[1]", "value": "neither affects"}, {"measurement": "effect on partial thromboplastin time", "setting": "[2]; concentration of 1.3 mM", "value": "no significant effect"}, {"measurement": "Partial Thromboplastin Time", "setting": "[2]; hirustasin 1.3 mM, buffer control 47.3 s", "value": 47.9, "unit": "s"}, {"measurement": "Ki", "setting": "Leukocyte elastase", "value": "> 1.3", "unit": "µM"}, {"measurement": "effect on proteinase activity", "setting": "Factor Xa; factor Xa, highest concentration used", "value": "no effect"}, {"measurement": "Ki", "setting": "Factor Xa; human factor Xa, inhibitor 1.3 mM", "value": "> 1.3", "unit": "µM"}, {"measurement": "effect on catalytic activity of isolated factor Xa", "setting": "Factor Xa; isolated factor Xa", "value": "neither affects"}, {"measurement": "Ki", "setting": "Urokinase", "value": "> 1.3", "unit": "µM"}, {"measurement": "effect on prothrombin time", "setting": "prothrombin time; concentration of 1.3 mM", "value": "no significant effect"}, {"measurement": "Quick", "setting": "prothrombin time; hirustasin 1.3 mM, buffer control 79%", "value": 80, "unit": "%"}, {"measurement": "Ki", "setting": "Pancreatic elastase", "value": "> 1.3", "unit": "µM"}, {"measurement": "Ki", "setting": "Chymase", "value": "> 1.3", "unit": "µM"}, {"measurement": "Ki", "setting": "Plasma kallikrein", "value": "> 1.3", "unit": "µM"}, {"measurement": "Ki", "setting": "Subtilisin", "value": "> 1.3", "unit": "µM"}, {"measurement": "Ki", "setting": "Thrombin; human thrombin, inhibitor 1.3 mM", "value": "> 1.3", "unit": "µM"}, {"measurement": "effect on proteinase activity", "setting": "Thrombin; human α-thrombin, highest concentration used", "value": "no effect"}]}, {"substance": "Mono S ®: pooled Mono S fractions, the finally isolated hirustasin (TQGNTCGGETCSAAQVCLKGKCVCNEVHCRIRCKYGLKKDENGCEYPCSCAKASQ; UniProt P80302 1-55, looked up)", "values": [{"measurement": "Trypsin SA [IU/mg] (specific activity)", "setting": "trypsin", "value": 2.7, "unit": "IU/mg"}, {"measurement": "Chymotrypsin SA [IU/mg] (specific activity)", "setting": "chymotrypsin", "value": 0.15, "unit": "IU/mg"}]}]}
